According to patent US20250333441A1, “POLYPEPTIDE INHIBITORS AND USES THEREOF” (Neuracle Science Co., Ltd., priority 2021, published 2025):

B1: LRRC4B (484-576): LRRC4B fragment, amino acids 484-576 of SEQ ID NO: 2 (SEQ ID NO: 8) (protein)
chain: YTYFTTVTVETLETQPGEEALQPRGTEKEPPGPTTDGVWGGGRPGDAAGPASSSTTAPAPRSSRPTEKAFTVPITDVTENALKDLDDVMKTTK
B2: LRRC4B mutant: LRRC4B (453-576) with alanine substitutions at positions 488 and 489 of SEQ ID NO: 2 (SEQ ID NO: 16) (protein)
chain: VSAVDPVAAGGTGSGGGGPGGSGGVGGGSGGYTYFAAVTVETLETQPGEEALQPRGTEKEPPGPTTDGVWGGGRPGDAAGPASSSTTAPAPRSSRPTEKAFTVPITDVTENALKDLDDVMKTTK
modifications: human Fc fusion in use

Legend:
[1] = system: mouse primary cortical neurons; test: Neurite growth of primary cortical neurons (beta-tubulin III immunostaining); type: cell-based; settings: FB peptides; treated for two days, assessed at day 3
Method: Next, primary cortical neurons (day 1 postnatal) were cultured in vitro with varying concentrations (0.006 to 60 nM) of the LRRC4B (453-576) protein fragment (i.e., amino acid residues 453-576 of SEQ ID NO: 2; SEQ ID NO: 7), and then at day 3 post-initial culture, the effect on neurite growth was assessed by immunostaining the cells with anti-beta-tubulin III antibody. Cells cultured with DMSO (“Veh”) were used as control.
Mouse hippocampal neurons were treated with LRRC4B peptides at 1 and 2 DIV to determine neurite growth. It was measured by using 3 different parameters, which are total neurites length, number of primary and secondary neurites. After the neurons were stained with beta-tubulin III at 3 DIV, neurites length and branch points were measured using Fiji (Image J, NIH, Bethesda). Individual neurons were selected by hand and these parameters were counted using the Simple neurite tracer plugin. Mouse spinal motor neurons sampled at postnatal day 1 were treated with 10 nM of NS101 and LRRC4B-peptides (dFB-dWY-JM31 and dFB-DY-JM31) at 1 and 2 DIV and immunostained with Tau-5 antibody at 3 DIV. Total neurite length and number of somas in images were measured by Neurphology Image J plugin.

[2] = molecular target: T1, FAM19A5 protein (Homo sapiens, UniProt Q7Z5A7); test: ELISA binding of recombinant FAM19A5 to coated LRRC4 family ectodomains, fragments and FB peptides; settings: coated protein or peptide, FAM19A5 up to 10 nM
Method: Next, to confirm the above co-immunoprecipitation results, an ELISA assay was used to measure the binding of the FAM19A5 protein to either the full-length ectodomain of members of LRRC4 protein family or various LRRC4B ectodomain protein fragments. Specifically, an ELISA plate was coated with one of the following LRRC4B ectodomain protein, which was conjugated to human Fc (100 nM/well): (1) full-length ectodomain of LRRC4 protein (amino acid residues 39-527 of SEQ ID NO: 1) (SEQ ID NO: 4); (2) full-length ectodomain of LRRC4B protein (amino acids 36-576 of SEQ ID NO: 2; i.e., construct #7 in Table 6) (SEQ ID NO: 5); (3) full-length ectodomain of LRRC4C protein (amino acids 45-527 of SEQ ID NO: 3) (SEQ ID NO: 6); (4) LRRC4B ectodomain fragment (amino acids 453-576 of SEQ ID NO: 2; i.e., construct #11 in Table 6) (SEQ ID NO: 7); (5) LRRC4B ectodomain fragment (amino acids 484-576 of SEQ ID NO: 2; i.e., construct #12 in Table 6) (SEQ ID NO: 8); (6) LRRC4B ectodomain fragment (amino acids 482-576 of SEQ ID NO: 2) (SEQ ID NO: 9); (7) LRRC4B ectodomain fragment (amino acids 482-497 of SEQ ID NO: 2) (SEQ ID NO: 10); and (8) LRRC4B ectodomain fragment (amino acids 498-576 of SEQ ID NO: 2; i.e., construct #13 in Table 6) (SEQ ID NO: 11). Then, recombinant FAM19A5 proteins (0.005, 0.01, 0.025, 0.05, 0.1, 0.25, 0.5, 1, 2.5, 5, and 10 nM) were added to the relevant wells, and the plates were incubated at 37° C. for 1 hour. Afterwards, the amount of LRRC4B-bound FAM19A5 protein was detected using […] anti-FAM19A5 (1-65) antibody.
As further confirmation, three synthetic polypeptides comprising amino acids 484-497 of SEQ ID NO: 2 (i.e., YTYFTTVTVETLET; SEQ ID NO: 65) were constructed: (1) FB-16 (GYTYFTTVTVETLETQ; SEQ ID NO: 17), (2) FB-20 ([…]; SEQ ID NO: 18), and (3) FB-28 ([…]; SEQ ID NO: 19). The peptides differed in their total length. The ability of these polypeptides to bind to recombinant FAM19A5 protein was assessed using an ELISA assay as described above.
Target sequence in this assay (Q7Z5A7 44-132): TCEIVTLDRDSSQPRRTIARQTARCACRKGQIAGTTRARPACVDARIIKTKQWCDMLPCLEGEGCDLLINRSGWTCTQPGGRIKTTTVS

[3] = molecular target: binding of FAM19A5 protein to full-length ectodomain of LRRC4 protein (Homo sapiens, UniProt Q7Z5A7); test: Competitive inhibition assay, plate coated with full-length LRRC4 ectodomain; settings: 100 nM/well coated full-length LRRC4 ectodomain; FAM19A5 5 ng/mL
binding of FAM19A5 protein to full-length ectodomain of LRRC4 protein, sequence (Q7Z5A7 44-132): as above
Method: (§1) As described in Example 3, there appeared to be much similarity in the binding domains of the different members of the LRRC4 family. […] Then, recombinant FAM19A5 protein (5 ng/mL) was added in combination with one of the following: (i) LRRC4B (484-576) protein fragment, (ii) LRRC4B (453-576, AA) protein fragment, and (iii) synthetic FB-20 peptide. The plates were incubated at 37° C., and then, the amount of FAM19A5 protein bound to the coated LRRC4, LRRC4B, or LRRC4C proteins was measured using anti-FAM19A5 (1-65) antibody.

[4] = molecular target: binding of FAM19A5 protein to full-length ectodomain of LRRC4C protein (Homo sapiens, UniProt Q7Z5A7); test: Competitive inhibition assay, plate coated with full-length LRRC4C ectodomain; settings: 100 nM/well coated full-length LRRC4C ectodomain; FAM19A5 5 ng/mL
binding of FAM19A5 protein to full-length ectodomain of LRRC4C protein, sequence (Q7Z5A7 44-132): as above
Method: as §1

[5] = molecular target: T1, FAM19A5 protein; test: competitive inhibition ELISA; competitor: coated LRRC4B(453-576, TT/TT)-hFc
[6] = molecular target: T1, FAM19A5 protein; test: Co-immunoprecipitation of FLAG-tagged LRRC4 family constructs with recombinant FAM19A5 in HEK293 cells; type: binding; settings: HEK293 cells expressing FLAG-tagged construct, recombinant FAM19A5 protein (1 μM) 30 minutes; anti-FLAG immunoprecipitation
Method: To better understand the interaction between FAM19A5 and members of the LRRC4 protein family, HEK293 cells were modified to express a FLAG-tagged member of the LRRC4 protein family, i.e., LRRC4C protein, LRRC4 protein, or LRRC4B protein. Then, the HEK293 cells or primary cortical neurons were treated with recombinant FAM19A5 protein (1 μM) for 30 minutes, and the binding between FAM19A5 protein and the different members of the LRRC4 protein family was assessed using both co-immunoprecipitation and immunofluorescence assays.
For the co-immunoprecipitation assay, cell lysates from the different FAM19A5-treated HEK293 cells were collected and immunoprecipitated with an anti-FLAG antibody, anti-FAM19A5 (1-65) antibody, or a human IgG antibody (control). Immunoprecipitated proteins were immunoblotted with anti-FLAG and anti-FAM19A5 (3-2) antibodies. For the immunofluorescence assay, the HEK293 cells treated with the recombinant FAM19A5 protein were immunostained with anti-FAM19A5 (3-2) (to detect FAM19A5 protein expression) and anti-FLAG antibodies (to detect member of the LRRC4 protein family). The primary cortical neurons treated with the recombinant FAM19A5 protein were immunostained with anti-FAM19A5 (3-2) and anti-LRRC4B antibodies. The nuclei were stained with Hoechst33342 (blue).
To determine the specific motif or domain of the LRRC4B protein that is responsible for the binding to a FAM19A5 protein, various FLAG-tagged LRRC4B deletion constructs were generated (see Table 6 below). HEK293 cells were transfected with the different deletion constructs and then treated with recombinant FAM19A5 protein as described in Example 1. Then, the cell lysates from the different HEK293 cells were immunoprecipitated with the anti-FLAG antibody. The immunoprecipitated proteins were immunoblotted with anti-FLAG and anti-FAM19A5 (3-2) antibodies.
As described in Example 2, all members of the LRRC4 protein family were capable of binding to FAM19A5 protein to varying degrees. Therefore, to compare the bindings domains, the amino acid sequences of the LRRC4B, LRRC4, and LRRC4C proteins were aligned. […] Therefore, to assess whether the corresponding positions of LRRC4 and LRRC4C were important in the binding of these proteins to FAM19A5 protein, cDNAs encoding either (i) LRRC4C protein fragment (amino acids 354-527 of SEQ ID NO: 3; SEQ ID NO: 66) or (ii) LRRC4 protein fragment (amino acids 353-527 of SEQ ID NO: 1; SEQ ID NO: 67) were constructed (see Table 7). HEK293 cells were transfected to express either of the protein fragments and then treated with recombinant FAM19A5 protein as described in Example 1. Then, the cell lysates from the different HEK293 cells were immunoprecipitated with the anti-FLAG antibody. The immunoprecipitated proteins were immunoblotted with anti-FLAG and anti-FAM19A5 (3-2) antibodies.
Target sequence in this assay (Q7Z5A7 44-132): as above

[7] = molecular target: binding of FAM19A5 protein to full-length ectodomain of the LRRC4B protein (amino acids 36-576)-hFc (Homo sapiens, UniProt Q7Z5A7); test: Competitive inhibition assay, plate coated with full-length LRRC4B ectodomain; settings: 100 nM coated ectodomain; FAM19A5 5 ng/mL; increasing concentrations
binding of FAM19A5 protein to full-length ectodomain of the LRRC4B protein (amino acids 36-576)-hFc, sequence (Q7Z5A7 44-132): as above
Method: Next, to further assess the role that the binding domain of the LRRC4B protein has on the interaction between FAM19A5 protein and members of the LRRC4 protein family, a competitive inhibition assay was used to determine whether different LRRC4B deletion constructs from Example 2 could inhibit the binding of FAM19A5 to the full-length ectodomain of the LRRC4B protein (i.e., amino acids 36-576 of SEQ ID NO: 2; SEQ ID NO: 5). Briefly, 100 nM of the full-length ectodomain of the LRRC4B protein was used to coat a plate, and then recombinant FAM19A5 protein (5 ng/mL) was added to the plate in combination with the following LRRC4B deletion constructs (increasing concentrations): (1) LRRC4B (453-576) (i.e., construct #11 in Table 6); (2) LRRC4B (453-576) mutant (comprises alanine substitutions at positions 488 and 489 of SEQ ID NO: 2; SEQ ID NO: 16); (3) LRRC4B (484-576) (i.e., construct #12 in Table 6); (4) LRRC4B (482-576); (5) LRRC4B (482-497); and (6) LRRC4B (498-576). The plates were incubated at 37° C., and then, the amount of FAM19A5 bound to the coated LRRC4B ectodomain protein was measured using H1RP-conjugated anti-FAM19A5 (1-65) antibody. […]

[8] = molecular target: T2, FAM19A5 (isoform 2) - full-length LRRC4B protein complex (Homo sapiens, UniProt Q7Z5A7); test: Immunofluorescence: dissociation of FAM19A5 from full-length LRRC4B in HEK293 cells; type: cell-based; settings: HEK293 cells expressing FAM19A5 isoform 2 and LRRC4B, treated 30 minutes
T2 construct: expressed in transfected cells; host or cells: HEK293
T2 sequence (Q7Z5A7 1-125 isoform Q7Z5A7-2, one chain of several): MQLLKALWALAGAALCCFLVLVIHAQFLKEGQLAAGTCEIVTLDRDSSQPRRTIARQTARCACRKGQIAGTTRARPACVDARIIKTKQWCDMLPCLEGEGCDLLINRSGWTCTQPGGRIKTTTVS
Method: Since LRRC4B protein fragments containing the binding domain described in Example 2 (e.g., LRRC4B (453-576); i.e., construct #11 in Table 6) was able to bind to FAM19A5 protein with high affinity, it was next assessed whether such protein fragments could compete with naturally existing LRRC4B protein for binding to FAM19A5 protein, and thereby, dissociate the FAM19A5-LRRC4 protein family complex. Briefly, HEK293 cells expressing both FAM19A5 isoform 2 and LRRC4B protein were treated (i.e., cultured in vitro) for 30 minutes with either LRRC4B (453-576)-hFc or mutant LRRC4B (453-576)-hFc (includes alanine substitutions at positions 488 and 489 of SEQ ID NO: 2; SEQ ID NO: 16) protein fragments. Then, the cells were immunostained with anti-FAM19A5 (1-65) and anti-LRRC4B antibodies to determine the expression of FAM19A5 and full-length LRRC4B proteins, respectively. The hFc-fused LRRC4B protein fragments were determined using an anti-hIgG antibody. The nuclei were stained with Hoechst 33342.

Molecule | neurite outgrowth [1] | binding to FAM19A5 protein (ELISA) [2] | inhibition of FAM19A5 binding to coated LRRC4 protein [3] | inhibition of FAM19A5 binding to coated LRRC4C protein [4] | fold increase in ability to dissociate the LRRC4B-FAM19A5 complex, against wild-type FB-21 [5] [fold] | binding to FAM19A5 protein (co-immunoprecipitation) [6] | inhibition of FAM19A5 binding to coated full-length LRRC4B ectodomain protein [7] | dissociation of FAM19A5 from full-length LRRC4B protein [8]
GYTYFTTVTVETLETQPGEKEPPGPTTD [FB-28] | Increased neurite outgrowth | high affinity | – | – | – | – | – | –
GYTYFTTVTVETLETQ [FB-16] | Increased neurite outgrowth | high affinity | – | – | – | – | – | –
GYTYFTTVTVETLETQPGEE [FB-20] | Increased neurite outgrowth | high affinity | able to inhibit FAM19A5 protein from binding | able to inhibit FAM19A5 protein from binding | – | – | – | –
GYTYFTTVTVEWYETQPGEEA [FB-21 (W12Y13)] | – | – | – | – | 2.9 | – | – | –
B1 | – | – | able to inhibit FAM19A5 protein from binding | able to inhibit FAM19A5 protein from binding | – | able to bind to the FAM19A5 protein | able to inhibit the interaction | –
B2 | – | – | minimal effect | minimal effect | – | – | much inferior in their ability to inhibit the interaction | FAM19A5 protein remained largely bound
